In assay [1] the target is T1, human NKG2D-Fc (human, UniProt P26718 78-216, limits assumed).
T1 construct: also called natural NKG2D-Fc; not shown: Fc part
T1 sequence (looked up): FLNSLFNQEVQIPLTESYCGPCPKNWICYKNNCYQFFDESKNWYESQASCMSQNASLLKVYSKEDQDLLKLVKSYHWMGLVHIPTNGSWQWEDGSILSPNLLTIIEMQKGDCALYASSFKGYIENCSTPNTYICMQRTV
Description: competition ELISA: inhibits 2 nM human NKG2D-Fc binding to plate-coated WT sMICA. On the technique in general: An ELISA detects its analyte on a solid surface through an enzyme-linked reagent.

In assay [2] the target is T2, biotinylated human NKG2D (Example 3) (human, UniProt P26718 78-216, limits assumed, biotinylated (site not stated)).
T2 construct: also called recombinant biotinylated NKG2D; surface coated biotinylated human NKG2D
T2 sequence (looked up): T1 sequence (looked up)
Description: biolayer interferometry (Octet), Kd = kOFF/kON.

The target of assay [3] is T2, biotinylated human NKG2D (Example 3). The experiment in a line: biolayer interferometry (Octet), biotinylated human NKG2D on the surface, 100 nM analyte.

This note sets out measurements from patent publication US20180134765A1 (AVIDBIOTICS, published 2018).

B1: WT α1-α2 soluble MICA protein (Example 3) (ligand)
chain: EPHSLRYNLTVLSWDGSVQSGFLTEVHLDGQPFLRCDRQKCRAKPQGQWAEDVLGNKTWDRETRDLTGNGKDLRMTLAHIKDQKEGLHSLQEIRVCEIHEDNSTRSSQHFYYDGELFLSQNLETKEWTMPQSSRAQTLAMNVRNFLKEDAMKTKTHYHAMHADCLQELRRYLKSGVVLRRTVPPMVQVTRSEASGGSGDRVTITCRASQDVSTAVAWYQQKPGKAPKLLIYSASFLYSGVPSRFSGSGSGTDFTLTISSLQPEDFATYYCQQSYTTPPTFGQGTKVEIKGGSSRSSSSGGGGSGGGGEVQLVESGGGLVQPGGSLRLSCAASGFTFTSTGISWVRQAPGKGLEWVGRIYPTNGSTNYADSVKGRFTISADTSKNTAYLQMNSLRAEDTAVYYCARTYGIYDLYVDYTEYVMDYWGQGTLVTVSSGGSSRSSSSGGGGSGGGGDIQMTQSPSSLSASGGSGQITVTCRASGFYPWNITLSWRQDGVSLSHDTQQWGDVLPDGQGTYQTWVATRISQGEEQRFTCYMEHSGQHSTHPVPSGKGSHHHHHH
notes: also called WT NKG2DL; WT MICA
In general, IC50 refers to the concentration that gives 50% inhibition. High values mean a need for much substance, low ones inhibition by little substance. What is called Kd is the free concentration of one partner at which half of the binding sites on the other are occupied at equilibrium, for simple one-to-one binding. Usually koff stands for the first-order rate constant of dissociation. The low end stands for a long-lived complex, the high end for a short-lived complex. Broadly, the kon is a measure of how fast the partners come together. Consider B1, for which the IC50 in assay [1] amounted to 19.4 nM. The same molecule gave a Kd in assay [2] of 13.8 nM. Further, in assay [3], the koff was found to be 0.0018 s⁻¹ and the kon amounted to 130000 M⁻¹ s⁻¹.
